According to the DeepSol protein solubility set:

experiment: soluble on expression in E. coli; label from the status in PepcDB or PDB records

Sequence	soluble on expression in E. coli
MRVDELRVDERIKSTLKERGIESFYPPQAEALKSGILEGKNALISIPTASGKTLIAEIAMVHRILTQGGKAVYIVPLKALAEEKFQEFQDWEKIGLRVAMATGDYDSKDEWLGKYDIIIATAEKFDSLLRHGSSWIKDVKILVADEIHLIGSRDRGATLEVILAHMLGKAQIIGLSATIGNPEELAEWLNAELIVSDWRPVKLRRGVFYQGFVTWEDGSIDRFSSWEELVYDAIRKKKGALIFVNMRRKAERVALELSKKVKSLLTKPEIRALNELADSLEENPTNEKLAKAIRGGVAFHHAGLGRDERVLVEENFRKGIIKAVVATPTLSAGINTPAFRVIIRDIWRYSDFGMERIPIIEVHQMLGRAGRPKYDEVGEGIIVSTSDDPREVMNHYIFGKPEKLFSQLSNESNLRSQVLALIATFGYSTVEEILKFISNTFYAYQRKDTYSLEEKIRNILYFLLENEFIEISLEDKIRPLSLGIRTAKLYIDPYTAKMFKDKMEEVVKDPNPIGIFHLISLTPDITPFNYSKREFERLEEEYYEFKDRLYFDDPYISGYDPYLERKFFRAFKTALVLLAWINEVPEGEIVEKYSVEPGDIYRIVETAEWLVYSLKEIAKVLGAYEIVDYLETLRVRVKYGIREELIPLMQLPLVGRRRARALYNSGFRSIEDISQARPEELLKIEGIGVKTVEAIFKFLGKNVKISEKPRKSTLDYFLKS	soluble
MAAEDELQLPRLPELFETGRQLLDEVEVATEPAGSRIVQEKVFKGLDLLEKAAEMLSQLDLFSRNEDLEEIASTDLKYLLVPAFQGALTMKQVNPSKRLDHLQRAREHFINYLTQCHCYHVAEFELPKTMNNSAENHTANSSMAYPSLVAMASQRQAKIQRYKQKKELEHRLSAMKSAVESGQADDERVREYYLLHLQRWIDISLEEIESIDQEIKILRERDSSREASTSNSSRQERPPVKPFILTRNMAQAKVFGAGYPSLPTMTVSDWYEQHRKYGALPDQGIAKAAPEEFRKAAQQQEEQEEKEEEDDEQTLHRAREWDDWKDTHPRGYGNRQNMGLEHHHHHH	soluble
MIDLAKDHLKKVLSLCGANRDCEYYPCHYENQSCLWCYCPFYPCEDENLGEFVKRKDGSLIWSCMKCNWIHKPEIASEVLKEITELTKDKKINDSIEFIDNHEILMNIKRRVEEKLGKDNSV	not soluble
AANDNNVEWNGLFHDQGPLFDNAPEPTSTQSVTLKLRTFKGDITSANIKYWDTADNAFHWVPMVWDSNDPTGTFDYWKGTIPASPSIKYYRFQINDGTSTAWYNGNGPSSTEPNADDFYIIPNFKTPDWLKNGVMYQIFPDRFYNGDSSNDVQTGSYTYNGTPTEKKAWGSSVYADPGYDNSLVFFGGDLAGIDQKLGYIKKTLGANILYLNPIFKAPTNHKYDTQDYMAVDPAFGDNSTLQTLINDIHSTANGPKGYLILDGVFNHTGDSHPWFDKYNNFSSQGAYESQSSPWYNYYTFYTWPDSYASFLGFNSLPKLNYGNSGSAVRGVIYNNSNSVAKTYLNPPYSVDGWRLDAAQYVDANGNNGSDVTNHQIWSEFRNAVKGVNSNAAIIGEYWGNANPWTAQGNQWDAATNFDGFTQPVSEWITGKDYQNNSASISTTQFDSWLRGTRANYPTNVQQSMMNFLSNHDITRFATRSGGDLWKTYLALIFQMTYVGTPTIYYGDEYGMQGGADPDNRRSFDWSQATPSNSAVALTQKLITIRNQYPALRTGSFMTLITDDTNKIYSYGRFDNVNRIAVVLNNDSVSHTVNVPVWQLSMPNGSTVTDKITGHSYTVQNGMVTVAVDGHYGAVLAQ	soluble
MSDRYRFTILGCGSSPGVPRPNGDWGACNPNNPKNKRYRSSLLVERIHKSGKKTTIVIDTGPDFRSQMIDACVNHLDAALYTHSHADHIHGIDDLRSYALAQKSLIDIYADSFTLRHLKNAFGYCFQTPKGSSYLPILKAHLINEDSQFIIQGQGGAIHVNTHLQLHGSIHSLGFRIGNVAYCTDVSQFPKKTLPKLMNLNVLIIEALQFKSHPSHLSVDQALQWIKYLQPKQAILTHMDRSLDYNEVINYLPPHVKPAYQGLIFEADA	not soluble
MIVLPRRLSDEVADRVRALIDEKNLEAGMKLPAERQLAMQLGVSRNSLREALAKLVSEGVLLSRRGGGTFIRWRHDTWSEQNIVQPLKTLMADDPDYSFDILEARYAIEASTAWHAAMRATPGDKEKIQLCFEATLSEDPDIASQADVRFHLAIAEASHNIVLLQTMRGFFDVLQSSVKHSRQRMYLVPPVFSQLTEQHQAVIDAIFAGDADGARKAMMAHLSFVHTTMKRFDEDQARHARITRLPGEHNEHSREKNA	soluble
TEKARDLFDKLMTQIQLDDTAKEHPLIQNGRIDKVIVHQQSRLWEFHLSFDELMPVMLYQTFMQQLELAFQQIAQVSVQITTNQTTFTEEQLTDYWQLALLNSQCNTPLVQKVLKTQTPQFEDRKIILPVDNEAVIPYLKQQYLPIIEELYFSYGF	not soluble
MGSDKIHHHHHHMSFEQDSTPRGNPVSCESARETNEFSPGKTCIKLMNYRRLTPSMSLLLVFEAAARHESYTRAADELSLSQSAISRQVQTLEDQLGVSLFRREGRSVKLTEVGRRYFVELSGALGRIRGATLQAMSHQAGAGTLRLATLPTFGSKWLLPHLHDFYAAHPGVTVHLHSRIGGIDFHTDDLDAAITVGSGDWPGLHAHRLYNEFLIAIASPDAAGRRKAGPRAPAWAVGQTLLGVTSNQHAWAEWFSHFGLDHREMRIGPSFELTSHLIQAVRAGMGIGLVPKVLVEDELSRNELVSIGDAITSQRSYYLVYPPENDTLPSLVAFREWLLKSC	not soluble
MGSDKIHHHHHHMDTRIRDFVKTNECYFAVNTYYHPENSVISFLRYINIDKIGNHLLKDYELDENDIRILNGERFIKVADSSKAYAILKEYYPEYLFYDEINDVLLHAVPKTNIKEILSPQKRLEEVLNEQNTEAEIKCAKLADTLHDYGLEYKNMGVSGSTVLKLNNENSDIDFVIYGMEKHKIAREILSVTFKDGVLEPLSEDFWKKAYVKRIKDGTLTYDEFVWHEKRKLNRGVVDGVMFDLLATREWDEITENYGDKKYKNLGFIQIKAKVKDDTFVFDNPAVYKVENVEILNNENNAEVLASEIEEVVSFTHTYAGSTYNGEEIIVRGKLEEVSGKETYKRVVVGTTREAFNEYVKLAK	not soluble
MGSDKIHHHHHHMTREKSSYAVQTVEKALDILETLTDESRHATLPYLAEKLDLSRNKAFRLLATLESKGLVERDETSGVYRLGISSVELAQRLLNSTSLIRHAHPIMERLARKHDEAVYIAVLKGDEVLFLDMVDCEQAIKTAPLVGRRFPFFSNAAGKAIRALESTDLLDRFLKKRGRNGGPFDPAALQQELKAVREHGVAVDFDGLGEGIVSVAVAVRDYAGKVIGALTMLGPSFRMMASRMENEIIPSLREGAEILSMKFGYAKL	not soluble
MSLSAHVEYFKPPAESELPDNAYGKLVREGYALFVDTKRLAPQFVGNGLNCSNCHLDQGRLANSAPLWGAYPMYPAYRKKNDKVNTFAERLQGCFQFSMNGGKPPAADSPQITALSVYAYWLASKAPLGVELPGRGYPDVAQPAKGYDLKQGAAVYQAQCAVCHGDNGQGQKAGADYVMPPLWGKDSYNWGAGMHRINTAASFIKHNMPLGKGGSLSDQQAWDVAAFVNSHERPQDPRLVEGSIEKTRVKFHANDGVNLYGQTVEGVLIGQGIREGHHHHHH	not soluble
MSLQEELSVLLKAQYPLIYLVTSEEERAEQAVYRIVQEVTRHQRLFVWTVTHGFREYGVAQQKTHHNTMSPEAAIEWVVRQEPGIFIFKDLHPFISSPAVTRWLREAIASFKGTEKAIILMSPYQETPIELEKDVVVLDFALPDLVTLDGVLGQQLGKSRHALGEDSREKLLKAALGLTKDEAEKVYRKAYVKAGQLTEGEVEIVLSEKKQMIRRNEGHHHHHH	soluble
MDRNEVRHAWDSVSETYAERRDPTGSDAALLEDLLERLPEAPTVLDVGCGDGARTLANLPPRSVGLDFSRAGLDLAAETVPDSRLVQGDMGSLPVTTDSVDAITAYHAVFHVQRDQHPEVYREFARVLRPGGTVLMTLPSGQFETVRRGWMGGSMFFSAPGRRATLDQLADAGFTETETVTATDPLGSDSEFVFATLADALEHHHHHH	soluble
MAHHHHHHMNLIHICLFIIVIKCYVNCIKKNNKHIAYDKFYKQGSNTIVGSGNGSGDLLFLNNININKNVERKKNILAHSEIGTVRNIDDINLLNHNKKNEISFTKCKQIATIGPASENFEQLEKLYLNGIDVFRLNFSHGLKSIKKYIINSIRILEKKYDTTIGILGDIQGPKIRIGEFEKNQINENDNNTFVELKEGDLFSFDLMNSLGNQNRVQLNYPELIKNAKAGQIILLDDGNLKMKILENNYDTSNIQNSYIKVQVLTGGKLYSKKGFCIPNMIMPIDVLSEKDIKDILFCINEEVDFLGYSFVQTEYDLIFLRNIINDYYESDFYNNIKRKDRINFDQNNLQMKTFDDENDFYIKEVNDYYNNYYLKNVQKYKQIYDVYKNQDLYINDNIQNHYNKNIVTNIGDDKNIIDEQHIHNNNNNNIDNIMKNYSNLYNINKDHNKIAIISKIEKPSAIKNIENIIKLSDGIMIARGDLGIETNLSNLPILQKKLINLCRIKYNKPVIVATQMMESMRFLPSPTRAEVTDVATALYDGSDCVMLSAETATGQYPILTVSTQNKIIKDVENDYYYYEYTQRKNDKLKMLDHKNNCCHENKDIQQINKYNHEYIQNNKYEQDIQNNISYFDKLIFSIRDISNNINLKSIILFSNEFNKIQKLSNLRTKAPIIVITENKYLARKLQLTWGIYPHLSKKQNLFNHDLFSLINYGCDVSKKEGFVNSPDEYSLVTFSKNINSANLLYLCQPCLTN	not soluble
MVDTHKLADDVLQLLDNRIEDNYRVCVILVGSPGSGKSTIAEELCQIINEKYHTFLSEHPNVIEVNDRLKPMVNLVDSLKTLQPNKVAEMIENQGLFKDHVEDVNFQPVKYSALTSNNEECTAVVARGGTANAIRIAAVDNPVNVNKLAQDSINIAQIVPMDGFHLSRRCLDLFKDPQTAHKRRGSPSTFDSNNFLQLCKILAKTSLCKVSSHHKFYSTSSVFEKLSKTFSQTIPDIFVPGFNHALKDPTPDQYCISKFTRIVILEGLYLLYDQENWKKIYKTLADTGALLVYKIDIDYEATEERVAKRHLQSGLVTTIAEGREKFRSNDLLNGRDIDNHLIKVDNIVHIRNDHHHHHH	soluble
MAHSGDNHSSEFCMLRSLSASIGADPLLVQGAGGNTSIKQAGVLWIKASGTWLKNARDDEIMVPVALAPLLDAVSHRSPAAEAAGQFTLADLNPRQLRPSIETTVHALLPQKIVVHVHCVETISIAVQANAEALLEGRLRGLDWAFVPYRRPGLPLAQAIAERLKPATNVLVLGNHGLVVAADTVAEAALLLQRVTGLLARQPRPAPPPDLDALLRLAAGSDYRLPASTAAHAVATDLASCRIAASGSLYPDHVIFLGVGSVIAGPGENAAAVVARTAAAPTSILFPGKGVLMRREANAGAEAMARCLADVVARVDGAARVNYLSPKENAELLNWDAEKYRQQLNREGATLQLEHHHHHH	not soluble
SESQEEIIHNIARHLAQIGDEMDHNIQPTLVRQL	soluble
SRNFSVFERFSKAFKDHPSLTRILVVSTISGGGLIAYSEANASYGANGGAVVETGTKKKKVVLLGTGWAGTSFLKNLNNSQYEVQIISPRNYFAFTPLLPSVTCGTVEARSVVEPIRNIGRKNVDTSYLEAECFKIDPASKKVYCRSKQGLSSNGKKEFSVDYDYLVIATGAQSNTFNIPGVEENCHFLKEVEDAQRIRKTVIDSFEKASLPELSDEERKRILHFVVVGGGPTGVEFAAELHDFVTEDLVSLYPRAKGSVRITLLEAADHILTMFDKRITEFAEEKFSRDGIDVKLGSMVTKVNEKDISAKTKGGEVSSIPYGMIVWSTGIGTRPVIKDFMKQIGQGNRRALATDEWLRVEGTDNIYALGDCATINQRKVMEDVSAIFSKADKDKSGTLTLKEFQEAMDDICVRYPQVELYLKSKRMRGIADLLKEAETDDVSKNNIELKIEEFKSALSQVDSQVKFLPATAQVAAQQGAYLAKCFDRMEECEKSPEGPIRMRGEGRHRFRPFRYRHLGQFAPLGGEQTAAQLPGDWVSIGHSSQWLWYSVYASKQVSWRTRVLVVSDWMRRFIFGRDSSSI	soluble
